Results as given in paper PMC9340540.

How the values were obtained:
[1] = biological target: CHN-1 (C. elegans); experiment: SEC; S200 Superdex column; CHN-1 alone, UFD-2 alone and CHN-1 + UFD-2 mixed in equal molar ratios
[2] = biological target: CHN-1 (C. elegans)
Target sequence in this assay (main, as listed by the source): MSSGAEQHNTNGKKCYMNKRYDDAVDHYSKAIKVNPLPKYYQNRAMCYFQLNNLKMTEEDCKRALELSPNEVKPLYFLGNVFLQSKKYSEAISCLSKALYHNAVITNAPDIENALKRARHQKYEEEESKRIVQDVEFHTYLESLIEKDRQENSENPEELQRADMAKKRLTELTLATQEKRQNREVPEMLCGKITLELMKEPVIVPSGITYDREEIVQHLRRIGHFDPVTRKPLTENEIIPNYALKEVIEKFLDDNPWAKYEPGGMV

Sequence of UFD-2 (Q09349 whole entry): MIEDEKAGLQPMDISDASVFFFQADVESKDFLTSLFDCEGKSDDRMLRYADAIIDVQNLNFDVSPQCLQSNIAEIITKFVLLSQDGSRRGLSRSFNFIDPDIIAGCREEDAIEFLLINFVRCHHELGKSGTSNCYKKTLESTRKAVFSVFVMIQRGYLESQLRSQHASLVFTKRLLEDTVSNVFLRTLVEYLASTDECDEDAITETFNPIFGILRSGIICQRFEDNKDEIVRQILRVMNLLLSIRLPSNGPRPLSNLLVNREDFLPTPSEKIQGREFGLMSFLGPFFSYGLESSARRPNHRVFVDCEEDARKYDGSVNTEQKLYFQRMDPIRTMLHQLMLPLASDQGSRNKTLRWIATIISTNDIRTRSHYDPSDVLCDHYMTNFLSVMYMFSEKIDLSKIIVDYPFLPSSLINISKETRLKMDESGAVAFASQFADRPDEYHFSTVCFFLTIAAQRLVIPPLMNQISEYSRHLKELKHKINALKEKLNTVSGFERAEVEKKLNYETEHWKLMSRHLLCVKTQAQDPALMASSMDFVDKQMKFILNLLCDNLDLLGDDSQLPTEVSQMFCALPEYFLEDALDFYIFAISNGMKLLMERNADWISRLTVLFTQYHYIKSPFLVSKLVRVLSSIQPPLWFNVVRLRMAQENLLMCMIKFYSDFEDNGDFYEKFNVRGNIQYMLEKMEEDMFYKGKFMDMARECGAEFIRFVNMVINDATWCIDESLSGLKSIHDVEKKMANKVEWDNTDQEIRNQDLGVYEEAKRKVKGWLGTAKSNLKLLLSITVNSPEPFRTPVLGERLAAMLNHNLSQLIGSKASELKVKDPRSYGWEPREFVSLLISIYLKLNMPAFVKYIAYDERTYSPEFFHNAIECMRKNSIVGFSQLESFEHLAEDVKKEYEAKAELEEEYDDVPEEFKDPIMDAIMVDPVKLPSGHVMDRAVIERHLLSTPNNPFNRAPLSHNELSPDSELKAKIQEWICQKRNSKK

Substance | stoichiometry N [1] | CHN-1 auto-ubiquitylation (UBE2D1); UFD-2 titrated at 0.3, 0.65 and 1.3 μM against 1.3 μM CHN-1 [2]
CHN-1 (enzyme) | 2 | 
UFD-2 (from UniProt Q09349 1-984) (enzyme) |  | 2 fold
